# Test results: patent US20030143647A1 (UNIVERSITY OF PITTSBURGH OF THE COMMONWEALTH SYSTEM OF …, published 2003)
# Molecular target: T1, HLA-A2.1 molecules on T2 cells (human)
# T1 construct: MHC class I molecule on the surface of T2 cells; also called HLA-A*0201
# Test: HLA class I stabilization assay on T2 cells, MA2.1 staining, flow cytometry
# Protocol: HLA Class I stabilization assays. Peptide-induced stabilization of HLA-A2.1 molecules on T2 cells was done as previously described (Zeh et al., Hum. Immunol., 39(2), 79-86 (1994)). 2×10⁵ T2 cells were incubated with […] of the indicated synthetic peptides in […] human B2m (Calbiochem, La Jolla, Calif.) for 18-20 hours at room temperature. The cells were then stained with the HLA-A2.1-specific antibody, MA2.1, for 45 minutes, washed with FACS Buffer (PBS, 5% FBS, and 0.01% sodium azide), and stained with a secondary FITC-conjugated anti-IgG antibody (Biosource International, Camarillo, Calif.). The cells were fixed in 4% formaldehyde prior to flow cytometry analysis. The negative control consisted of T2 cells without peptide. The positive control consisted of T2 cells loaded with the Flu matrix peptide, […]. Flow cytometric analysis was done using a FACScan flow cytometer (Becton-Dickinson). Experimental results are depicted as X-Fold increase=(Mean Fluorescent Intensity of T2 cells loaded with peptide/Mean Fluorescent Intensity of T2 cells with no peptide).
row,HLA-A2.1 Binding (X-Fold increase of MFI) [fold],Binder
1,2.25,"AKYLMELTML (also called HeLa-derived cyclin B1 peptide) [Human cyclin B1 peptide from the database, SEQ ID NO: 8 (AKYLMELTML)]"
2,1.58,"AGYLMELCMA (Synthesized by F-moc chemistry, with leucine at positions 4 and 7) [Cyclin B1 peptide from the tumor, SEQ ID NO: 5 (AGYLMELCMA)]"
3,2.08,"AGYLMELCFA (Synthesized by F-moc chemistry, with leucine at positions 4 and 7) [Cyclin B1 peptide from the tumor, SEQ ID NO: 6 (AGYLMELCFA)]"
4,1.6,"AGYLMELCV (Synthesized by F-moc chemistry, with leucine at positions 4 and 7; also called P1) [Cyclin B1 peptide from the tumor, SEQ ID NO: 1 (AGYLMELCV)]"
5,1.48,"AGYLMELCM (Synthesized by F-moc chemistry, with leucine at positions 4 and 7; also called P2) [Cyclin B1 peptide from the tumor, SEQ ID NO: 2 (AGYLMELCM)]"
6,1.61,"AGYLMELCC (also called P4) [Cyclin B1 peptide from the tumor, SEQ ID NO: 4 (AGYLMELCC)]"
7,1.42,"AGYLMELCF (Synthesized by F-moc chemistry, with leucine at positions 4 and 7; also called P3) [Cyclin B1 peptide from the tumor, SEQ ID NO: 3 (AGYLMELCF)]"
8,2.28,"AKYLMELTM (also called HeLa-derived cyclin B1 peptide) [Human cyclin B1 peptide from the database, SEQ ID NO: 7 (AKYLMELTM)]"
